Test results from article PMC8548535, “Kinetic and structural roles for the surface in guiding SAS-6 self-assembly to direct centriole architecture” (Nature Communications, 2021).

How the values were obtained:
[1] = molecular target: the molecule itself; test: high-speed atomic force microscopy (PORT-HS-AFM); homodimer with homodimer (and higher oligomers, rings) adsorbed on a mica surface; 20 mM Tris-HCl, 150 mM KCl, pH 7.4, 6-10 °C; ~120 nM in solution (~14 nM pre-incubated on mica for ring opening and closing); effective surface constants, Kd from a fit of a coagulation-fragmentation model
[2] = molecular target: the molecule itself; test: circular dichroism, concentration series; monomer to dimer; CD signal at 222 nm at varying protein concentrations, 20 °C, 20 mM potassium phosphate pH 8.0, 150 mM NaF, fitted with a two-state association model

B1: Chlamydomonas reinhardtii SAS-6[NL] (CrSAS-6[NL], amino acids 1-503) (domain or fragment, UniProt A9CQL4 1-503, looked up)
chain: MPLLLDDGDPKAQTGFDLSTATTLFWRPVPVHVKQQDREDVLEELTFRILTGVAKQNHNLRILRIHISSDSDLFFLHTLEVSEEDFQSLKNDQGILVDFASFPGKIISLLEKCILAQPGDSPRFQAVLTIRGGESVFKIVEINDFKQLPHITLAFRPGNDSVVKQFLAFRLSEVKGTCHDLSDDLSRTRDDRDSMVAQLAQCRQQLAQLREQYDKHLLEVQAQAKTQQASAHEERIREKSQLKDQFEKERGEMEGRYRDQIAALNTRLGELDTENRKLREVKYELDTKVSELSHKLGSSEGSNRSLEEETARLRSLNQQLSSSKHELEIQLNEAKAKVLALDEKAQSQGDVIEQQRGRLRDMEAALRQTEQRCADLRDTLASAEGRAKEAQAEVLKGNQAIEKLTNDLRLAKEKTKRKAAIILRQEEELQEREQSLANATRDVGVLGQQAESLRKDVASLHSENDSLRSKLEDSKQQLQSNEQMIRWLNQQVTEAQLHASGAT
notes: SAS-6 of Chlamydomonas reinhardtii, amino acids 1-503: globular N-terminal head domain and the coiled-coil (spokes), without the unstructured C-terminal moiety; Forms a homodimer through its coiled coil (monomer-dimer Kd measured here); source: E. coli BL21(DE3), purified (HisTrap Ni2+-Sepharose, PreScission cleavage, reverse HisTrap, SEC Superdex 200)
In the case of B1, the “stoichiometry N” value [1] is reported as 7 to 10 homodimers and the Kd [2] is reported as roughly 20 nM.
